The target of assay [1] is FLAG-RACK1 WD1–4 (human RACK1 in which WD40 domains 5 to 7 have been deleted) (human). In words: co-IP; anti-FLAG immunoprecipitation (protein A magnetic beads) from extracts of mRNA-injected Xenopus embryos in EB buffer, 1 h at 4°C; Western blots with anti-xMELK, anti-RACK1, anti-FLAG or anti-myc antibodies; uninjected embryos as control.
Assay [2] concerns the target FLAG-RACK1 WD5–7 (human RACK1 in which WD40 domains 1 to 4 have been deleted) (human). Described as above.

This is an account of results in article PMC3798187.

Consider “myc-tagged xMELK (from UniProt Q91821 1-651) (enzyme)”, for which the fold of myc-xMELK co-immunoprecipitated (myc/FLAG ratio) compared to full length FLAG-RACK1 was 2.1 times in assay [1] and 0.7 times in assay [2].
